# Residue numbers refer to the chain shown, from its start. Numbers in names are those of the source. Ends that are not written are not given here.
# T1: wild-type soluble CD40L fragment (residues 118-261) with no N-terminal KGD motif (human, UniProt P29965 118-261)
# T1 construct: also called WT CD40L; WT sCD40L; not shown: His tag from the PET28a vector (Ni-NTA purification, anti-His detection)
# T1 sequence: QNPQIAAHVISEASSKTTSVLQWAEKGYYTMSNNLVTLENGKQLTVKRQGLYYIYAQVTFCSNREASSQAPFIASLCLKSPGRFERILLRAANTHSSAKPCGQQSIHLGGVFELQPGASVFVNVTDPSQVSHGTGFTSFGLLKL
# B1: CD40L HIGMS1 mutant H224Y (soluble fragment) (ligand)
# chain: T1 sequence with H107Y
# notes: not shown: His tag from the PET28a vector (Ni-NTA purification, anti-His detection)
# B2: CD40L HIGMS1 mutant Q174R (soluble fragment) (ligand)
# chain: T1 sequence with Q57R
# notes: as for B1
# B3: CD40L HIGMS1 mutant G227V (soluble fragment) (ligand)
# chain: T1 sequence with G110V
# notes: as for B1
# B4: CD40L HIGMS1 mutant T176I (soluble fragment) (ligand)
# chain: T1 sequence with T59I
# notes: Printed as T1761, read as T176I; also called T1761 (so in the source); not shown: His tag from the PET28a vector (Ni-NTA purification, anti-His detection)
# B5: CD40L HIGMS1 mutant G226A (soluble fragment) (ligand)
# chain: T1 sequence with G109A
# notes: as for B1
# B6: CD40L HIGMS1 mutant L258S (soluble fragment) (ligand)
# chain: T1 sequence with L141S
# notes: as for B1
# B7: CD40L Y170E mutant (soluble fragment) (ligand)
# chain: T1 sequence with Y53E
# notes: Mutant of the soluble CD40L fragment; also called Y170 to E; dnCD40L; not shown: His tag from the PET28a vector (Ni-NTA purification, anti-His detection)
# B8: CD40L H224E/G226E mutant (soluble fragment) (ligand)
# chain: T1 sequence with H107E, G109E
# notes: Mutant of the soluble CD40L fragment; also called dnCD40L; CD40L decoy; not shown: His tag from the PET28a vector (Ni-NTA purification, anti-His detection)
# B9: CD40L G252E mutant (soluble fragment) (ligand)
# chain: T1 sequence with G135E
# notes: as for B8
# B10: site 2 peptide of integrin β3 fused to GST (peptide)
# chain: QPNDGQSHVGSDNHYSASTTM
# modifications: also: fused to GST, order not given here
# notes: also called peptide from site 2 of β3; not shown: glutathione S-transferase fusion partner
# Molecular target: T2, CD40 fragment (residues 21-144) fused to GST (UniProt P25942 21-144)
# T2 construct: range 21-144; Made in E. coli BL21 from PGEX2T (BamHI/EcoRI), purified on glutathione-sepharose; also called CD40 fused to GST; not shown: glutathione S-transferase encoded by the PGEX2T vector
# T2 sequence (P25942 21-144): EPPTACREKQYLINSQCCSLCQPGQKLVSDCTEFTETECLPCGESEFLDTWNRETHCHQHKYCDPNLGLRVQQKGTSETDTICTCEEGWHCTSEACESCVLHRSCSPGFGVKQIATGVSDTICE
# Assay: ELISA-type CD40 binding (as for FIG. 11)
# Experimental: Bound CD40L mutants were measured using anti-His antibodies. […] Data are shown as mean+/−SEM (n=5).
row,binding result,Binder
1,binds,B1
2,binds,B2
3,binds,B3
4,binds,B4
5,binds,B5
6,binds,B6

# Molecular target: T2, CD40 fragment (residues 21-144) fused …
# Assay: ELISA-type: immobilized CD40 (21-144)-GST, CD40L mutant in solution
row,binding result,Binder
1,binds,B7
2,binds,B8
3,binds,B9

# Molecular target: T1, wild-type soluble CD40L fragment …
# Assay: ELISA-type: immobilized CD40L, site 2 peptide fused to GST, bound GST measured
row,binding result,Binder
1,binds,B10

# Source: patent US20220135649A1 (University of California, published 2022)
